In patent CN114907480A (JIANGSU XINTRUM PHARMACEUTICALS CO LTD, dated 2022):

Key:
[1] = biological target: T1, 重组人CD73蛋白 (自主表达的人源CD73蛋白, C端6×His标签) (human, UniProt P21589 27-549, limits assumed); test: SPR, Biacore T200, antibody captured by anti-mouse Fc IgG on CM5 chip, human CD73 as analyte, 25℃, 1:1 model
T1 sequence: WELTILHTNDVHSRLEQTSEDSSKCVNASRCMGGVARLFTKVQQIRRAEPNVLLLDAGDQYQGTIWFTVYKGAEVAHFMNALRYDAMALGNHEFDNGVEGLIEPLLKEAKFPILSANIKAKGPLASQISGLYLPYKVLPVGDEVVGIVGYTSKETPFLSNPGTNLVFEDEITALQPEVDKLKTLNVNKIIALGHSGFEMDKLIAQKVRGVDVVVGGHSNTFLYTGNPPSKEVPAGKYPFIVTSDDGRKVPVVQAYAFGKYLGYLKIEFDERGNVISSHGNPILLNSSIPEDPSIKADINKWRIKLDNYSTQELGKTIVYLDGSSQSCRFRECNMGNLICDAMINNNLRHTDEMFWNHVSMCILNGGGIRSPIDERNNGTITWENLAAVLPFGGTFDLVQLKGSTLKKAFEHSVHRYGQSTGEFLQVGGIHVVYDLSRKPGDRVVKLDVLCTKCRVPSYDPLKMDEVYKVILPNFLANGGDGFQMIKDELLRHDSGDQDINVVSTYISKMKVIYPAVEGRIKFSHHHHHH

[2] = biological target: T1, 重组人CD73蛋白 (自主表达的人源CD73蛋白, C端6×His标签); test: SPR, Biacore T200, antibody captured on CM5 chip, human CD73 as analyte, 25℃, 1:1 model

B1: 抗人CD73单克隆抗体7-C10-Ba-C2 (antibody, V domains shown)
VH: EVQLQQSGPELVKPGASMKISCKASGYSFTGYTMNWVKQSHGKNLEWIGFITPYNGDTIYNQKFKGKATVTVDKSSSTAYMDLLSLTSEDSAVYYCAREGYDGGYFDYWGQGTTLTVSS
VL: DIQMTQSPASLSASVGETVTITCRASENIYSYLAWYQQKQGKSPQLLVYNTQTLAEGVPSRFSGSGSGTQFSLKINSLQPEDFGSYYCQHHYGTPMYPFGGGTKLEIK
notes: Mouse (BALB/c) hybridoma antibody, IgG type, purified from ascites; also called 本发明抗体7-C10-Ba-C2; 本发明的抗CD73单抗
Kd [1]: 0.416 nM | koff [1]: 3.21e-05 s⁻¹ | kon [1]: 77200 M⁻¹ s⁻¹

B2: MEDI-9447 (MedImmune公司的抗CD73单克隆抗体) (antibody, V domains shown)
VH: EVQLLESGGGLVQPGGSLRLSCAASGFTFSSYAYSWVRQAPGKGLEWVSAISGSGGRTYYADSVKGRFTISRDNSKNTLYLQMNSLRAEDTAVYYCARLGYGRVDEWGRGTLVTVSS
VL: QSVLTQPPSASGTPGQRVTISCSGSLSNIGRNPVNWYQQLPGTAPKLLIYLDNLRLSGVPDRFSGSKSGTSASLAISGLQSEDEADYYCATWDDSHPGWTFGGGTKLTVL
Kd [2]: 0.141 nM | koff [2]: 3.91e-05 s⁻¹ | kon [2]: 278000 M⁻¹ s⁻¹
